Values of other authors as cited in paper PMC10565355.

Target: Fibrinogen (Homo sapiens) (UniProt P02671)
Sequence of UniProt P02671 (P02671 36-866, chain 1 of 3): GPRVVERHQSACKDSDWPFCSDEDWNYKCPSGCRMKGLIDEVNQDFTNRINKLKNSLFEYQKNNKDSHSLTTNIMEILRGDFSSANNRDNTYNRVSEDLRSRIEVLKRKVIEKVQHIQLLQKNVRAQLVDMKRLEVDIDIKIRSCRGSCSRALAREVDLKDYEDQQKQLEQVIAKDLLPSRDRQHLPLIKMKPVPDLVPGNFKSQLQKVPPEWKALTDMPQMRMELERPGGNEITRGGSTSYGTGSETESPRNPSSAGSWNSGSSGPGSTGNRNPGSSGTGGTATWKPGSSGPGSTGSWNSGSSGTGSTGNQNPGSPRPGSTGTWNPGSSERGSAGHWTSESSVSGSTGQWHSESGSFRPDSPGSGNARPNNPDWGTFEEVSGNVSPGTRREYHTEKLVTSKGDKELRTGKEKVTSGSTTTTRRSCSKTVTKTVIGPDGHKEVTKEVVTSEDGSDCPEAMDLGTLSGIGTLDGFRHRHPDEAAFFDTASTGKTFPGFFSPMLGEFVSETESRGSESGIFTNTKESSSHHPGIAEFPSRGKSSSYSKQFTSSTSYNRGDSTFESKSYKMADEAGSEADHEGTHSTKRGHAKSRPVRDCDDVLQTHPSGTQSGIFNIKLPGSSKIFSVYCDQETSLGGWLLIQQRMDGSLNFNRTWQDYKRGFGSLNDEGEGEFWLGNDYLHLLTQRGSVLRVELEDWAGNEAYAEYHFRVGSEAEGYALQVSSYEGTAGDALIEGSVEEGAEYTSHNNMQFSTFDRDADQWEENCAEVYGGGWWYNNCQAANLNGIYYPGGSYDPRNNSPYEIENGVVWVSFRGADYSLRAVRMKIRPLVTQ
Sequence of UniProt P02671 (P02675 45-491, chain 2 of 3, further chain): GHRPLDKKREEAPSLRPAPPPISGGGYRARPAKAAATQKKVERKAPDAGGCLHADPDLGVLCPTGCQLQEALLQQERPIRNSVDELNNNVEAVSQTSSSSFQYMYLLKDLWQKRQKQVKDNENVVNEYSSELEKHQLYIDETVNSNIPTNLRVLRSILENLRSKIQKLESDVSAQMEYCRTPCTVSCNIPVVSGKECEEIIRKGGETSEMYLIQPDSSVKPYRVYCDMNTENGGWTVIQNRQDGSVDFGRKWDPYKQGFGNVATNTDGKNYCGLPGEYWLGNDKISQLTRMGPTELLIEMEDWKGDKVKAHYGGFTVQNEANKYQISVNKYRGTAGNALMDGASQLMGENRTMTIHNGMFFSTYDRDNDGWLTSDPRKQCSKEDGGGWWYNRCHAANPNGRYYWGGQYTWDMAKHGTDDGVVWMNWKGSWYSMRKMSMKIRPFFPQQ
Sequence of UniProt P02671 (P02679 27-453, chain 3 of 3, further chain): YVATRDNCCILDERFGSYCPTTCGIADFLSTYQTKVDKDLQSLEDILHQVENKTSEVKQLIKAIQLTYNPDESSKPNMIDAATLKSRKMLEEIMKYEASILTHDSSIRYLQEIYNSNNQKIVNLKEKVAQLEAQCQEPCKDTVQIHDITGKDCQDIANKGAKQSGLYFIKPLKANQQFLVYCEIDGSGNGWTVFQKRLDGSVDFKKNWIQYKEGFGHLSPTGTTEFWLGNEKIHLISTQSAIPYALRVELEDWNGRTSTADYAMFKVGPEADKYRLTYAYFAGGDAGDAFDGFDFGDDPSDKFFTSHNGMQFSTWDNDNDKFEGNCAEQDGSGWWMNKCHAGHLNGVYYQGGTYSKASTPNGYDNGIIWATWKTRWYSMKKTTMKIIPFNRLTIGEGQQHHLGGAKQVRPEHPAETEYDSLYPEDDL

Question: For Efb EfbA (from UniProt A6QG59), which Kd is on record?
Answer: 1000 nM
